Target: T1, human TD-60 with an amino-terminal streptavidin-binding protein (SBP) tag (human, UniProt Q9P258 1-522)
T1 construct: TD-60 (RCC2), human; cDNA codon optimized and made synthetically; The far-western sentence says only 'purified TD-60'; The GEF assay names it 'SBP-tagged recombinant TD-60'; far-western methods are in the Supplementary Methods; also called SBP-TD-60; RCC2; source: Sf9 cells (baculovirus, pFastBacI), purified
Assay: far-Western; purified RalA or purified Ran tested on purified TD-60; details only in the Supplementary Methods
Conditions: both partners purified

T1 sequence (Q9P258 whole entry): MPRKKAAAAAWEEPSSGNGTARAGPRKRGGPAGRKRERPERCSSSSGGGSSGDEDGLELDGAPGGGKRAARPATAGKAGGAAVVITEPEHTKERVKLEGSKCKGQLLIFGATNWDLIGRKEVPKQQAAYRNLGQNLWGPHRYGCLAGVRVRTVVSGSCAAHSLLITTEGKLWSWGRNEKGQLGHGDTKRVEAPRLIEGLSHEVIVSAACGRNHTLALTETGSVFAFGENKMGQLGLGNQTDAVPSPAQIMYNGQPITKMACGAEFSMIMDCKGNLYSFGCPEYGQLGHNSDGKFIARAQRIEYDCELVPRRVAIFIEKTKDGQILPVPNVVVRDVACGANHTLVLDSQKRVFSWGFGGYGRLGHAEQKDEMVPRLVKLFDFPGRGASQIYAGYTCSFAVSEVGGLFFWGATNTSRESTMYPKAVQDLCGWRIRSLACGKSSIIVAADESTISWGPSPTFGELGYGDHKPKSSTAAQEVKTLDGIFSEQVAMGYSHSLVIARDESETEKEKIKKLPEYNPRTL

B1: purified human RalA (cloned into pFAT2) (natural protein, UniProt P11233 1-206, looked up)
chain: MAANKPKGQNSLALHKVIMVGSGGVGKSALTLQFMYDEFVEDYEPTKADSYRKKVVLDGEEVQIDILDTAGQEDYAAIRDNYFRSGEGFLCVFSITEMESFAATADFREQILRVKEDENVPFLLVGNKSDLEDKRQVSVEEAKNRAEQWNVNYVETSAKTRANVDKVFFDLMREIRARKMEDSKEKNGKKKRKSLAKRIRERCCIL
notes: RalA, human; The RalA of the GEF assay is called GST-tagged; also called Ras-related protein RalA; source: purified; cloned into pFAT2
Question: Does B1 bind?
Answer: Result: binds

From PMC4510650, “TD-60 links RalA GTPase function to the CPC in mitosis” (Nature Communications, 2015)
